Changes are numbered by the printed parent chain. Values belong to the binder of their own block, whether it stands above or below them.
Assays:
[1] = biological target: T1, hCD16a-V158 (FcgRIIIa-V158) (human, UniProt P08637 17-208); experiment: SPR, FcgR analyte titration on protein A captured dAb-Fc
T1 construct: not shown: C-terminal his-tag
Procedure: (§1) A second SPR assay for testing the interaction between antibodies or dAb-Fc proteins with FcgR proteins is a protein A capture method. These experiments are also performed on either a Biacore™ T100 or Biacore™ T200 instrument (GE Healthcare) at 25° C. For these studies, protein A is immobilized on flow cells 1-4 of a CM5 sensor chip using standard ethyl (dimethylaminopropyl) carbodiimide (EDC)/N-hydroxysuccinimide (NHS) chemistry, with ethanolamine blocking, in a running buffer of 10 mM HEPES pH 7.4, 150 mM NaCl, 3 mM EDTA, 0.05% surfactant p20, to a density of ˜3000 RU.

[2] = biological target: T2, hCD32a-H131 (FcgRIIa-H131) (human, UniProt P12318 36-218); experiment: as above
T2 construct: not shown: C-terminal his-tag
T2 sequence (looked up): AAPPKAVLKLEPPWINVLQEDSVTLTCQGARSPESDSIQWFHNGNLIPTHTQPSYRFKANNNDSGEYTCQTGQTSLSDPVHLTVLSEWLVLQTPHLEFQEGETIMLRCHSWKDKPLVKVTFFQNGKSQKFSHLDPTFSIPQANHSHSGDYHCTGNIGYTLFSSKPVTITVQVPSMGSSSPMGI
Procedure: as §1

[3] = biological target: T3, hCD16b-NA2 (FcgRIIIb-NA2) (human, UniProt O75015 17-200, limits assumed); experiment: as above
T3 construct: not shown: C-terminal his-tag
T3 sequence (O75015 17-200 N65S limits assumed): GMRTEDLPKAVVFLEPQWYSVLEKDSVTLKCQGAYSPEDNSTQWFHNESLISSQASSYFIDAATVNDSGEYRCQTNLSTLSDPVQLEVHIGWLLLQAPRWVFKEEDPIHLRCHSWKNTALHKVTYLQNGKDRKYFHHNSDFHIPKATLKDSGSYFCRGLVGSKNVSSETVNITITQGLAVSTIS
Procedure: as §1

[4] = biological target: T4, hCD32a-R131 (FcgRIIa-R131) (human, UniProt P12318 36-218); experiment: as above
T4 construct: not shown: C-terminal his-tag
T4 sequence (looked up): T2 sequence (looked up) with H132R
Procedure: as §1

hCD32b (FcgRIIb) = biological target: T5, hCD32b (FcgRIIb) (human, UniProt P31994 46-217); experiment: as above
T5 construct: not shown: C-terminal his-tag
T5 sequence (looked up): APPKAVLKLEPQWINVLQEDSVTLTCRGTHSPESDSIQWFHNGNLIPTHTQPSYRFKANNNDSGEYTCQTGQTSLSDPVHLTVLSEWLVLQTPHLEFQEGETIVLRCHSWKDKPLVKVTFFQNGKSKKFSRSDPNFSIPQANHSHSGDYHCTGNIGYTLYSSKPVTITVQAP
Procedure: as §1

hCD40-Fc = biological target: T6, hCD40-Fc (human, UniProt P25942 21-193); experiment: SPR, immobilized hCD40-Fc, dAb-Fc analyte (avidity)
T6 construct: not shown: Fc part of hCD40-Fc, not described
T6 sequence (P25942 21-193): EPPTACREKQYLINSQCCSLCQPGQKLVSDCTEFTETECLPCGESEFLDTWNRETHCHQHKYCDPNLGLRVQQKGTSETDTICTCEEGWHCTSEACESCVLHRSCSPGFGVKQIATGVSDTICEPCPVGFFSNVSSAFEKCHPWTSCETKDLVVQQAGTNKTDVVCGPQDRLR

T1 sequence (P08637 17-208 F176V limits assumed): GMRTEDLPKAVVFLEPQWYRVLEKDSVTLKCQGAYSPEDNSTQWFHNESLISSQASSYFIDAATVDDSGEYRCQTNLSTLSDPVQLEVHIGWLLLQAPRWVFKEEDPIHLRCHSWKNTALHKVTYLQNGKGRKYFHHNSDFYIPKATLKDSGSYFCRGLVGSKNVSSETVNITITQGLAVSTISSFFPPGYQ

Kd [1]: > 5 µM | Kd [2]: > 5 µM | Kd [3]: > 5 µM | Kd [4]: > 5 µM | Kd (hCD32b (FcgRIIb)): > 5 µM
B1: 3h56-269-IgG1.1f (Fc fusion)
chain: EVQLLESGGGLVQPGGSLRLSCAASGFTFRDYEMWWVRQAPGKGLERVSAINPQGTRTYYADSVKGRFTISRDNSKNTLYLQMNSLRAEDTAVYYCAKLPFRFSDRGQGTLVTVSSASTEPKSCDKTHTCPPCPAPEAEGAPSVFLFPPKPKDTLMISRTPEVTCVVVDVSHEDPEVKFNWYVDGVEVHNAKTKPREEQYNSTYRVVSVLTVLHQDWLNGKEYKCKVSNKALPSSIEKTISKAKGQPREPQVYTLPPSREEMTKNQVSLTCLVKGFYPSDIAVEWESNGQPENNYKTTPPVLDSDGSFFLYSKLTVDKSRWQQGNVFSCSVMHEALHNHYTQKSLSLSPGK
notes: anti-CD40 dAb-Fc

KDapparent (hCD40-Fc): < 1 nM
B2: 3h56-269-IgG1.3f (Fc fusion)
chain: B1 chain with S234A, S235P
notes: dAb-Fc fusion protein

KDapparent (hCD40-Fc): < 1 nM
B3: 3h56-269-IgG1.1f (Fc fusion)
chain: B1 chain
notes: dAb-Fc fusion protein

Reference: patent publication US20220106400A1 (Bristol-Myers Squibb, published 2022)
